{"source": "paper PMC8123688", "about": "“In Vivo Imaging of Thyroid Cancer with ^99mTc-TR1401 and ^99mTc-TR1402: A Comparison Study in Dogs” (Journal of Clinical Medicine, 2021)", "binders": {"B1": {"name": "99mTc-Thyrogen, radiolabeled recombinant human TSH (Thyrogen) (ligand)", "chain 1": "not shown", "chain 2": "FCIPTEYTMHIERRECAYCLTINTTICAGYCMTRDINGKLFLPKYALSQDVCTYRDFIYRTVEIPGCPLHVAPYFSYPVALSCKCGKCNTDYSDCIHEAIKTNYCTKPQKSY", "modifications": "technetium-99m label (sites and chain not stated) | technetium-99m label (sites and chain not stated)", "notes": "glycoprotein hormones alpha chain (alpha subunit of TSH), human; recombinant human TSH (Thyrogen), so named in the abstract; thyrotropin (TSH) beta subunit, human; Thyrogen is a drug product; also called rhTSH; radiolabeled human recombinant TSH"}}, "target": "T1, TSH receptor (TSHR) on human ML-1 cells (human (endogenous in ML-1), UniProt P16473 21-764)", "T1 construct": "thyrotropin receptor (TSHR) expressed on the TSHR-positive human thyroid cancer cell line ML-1; also called TSH receptors; source: endogenous, on human ML-1 cells", "T1 sequence (P16473 21-764)": "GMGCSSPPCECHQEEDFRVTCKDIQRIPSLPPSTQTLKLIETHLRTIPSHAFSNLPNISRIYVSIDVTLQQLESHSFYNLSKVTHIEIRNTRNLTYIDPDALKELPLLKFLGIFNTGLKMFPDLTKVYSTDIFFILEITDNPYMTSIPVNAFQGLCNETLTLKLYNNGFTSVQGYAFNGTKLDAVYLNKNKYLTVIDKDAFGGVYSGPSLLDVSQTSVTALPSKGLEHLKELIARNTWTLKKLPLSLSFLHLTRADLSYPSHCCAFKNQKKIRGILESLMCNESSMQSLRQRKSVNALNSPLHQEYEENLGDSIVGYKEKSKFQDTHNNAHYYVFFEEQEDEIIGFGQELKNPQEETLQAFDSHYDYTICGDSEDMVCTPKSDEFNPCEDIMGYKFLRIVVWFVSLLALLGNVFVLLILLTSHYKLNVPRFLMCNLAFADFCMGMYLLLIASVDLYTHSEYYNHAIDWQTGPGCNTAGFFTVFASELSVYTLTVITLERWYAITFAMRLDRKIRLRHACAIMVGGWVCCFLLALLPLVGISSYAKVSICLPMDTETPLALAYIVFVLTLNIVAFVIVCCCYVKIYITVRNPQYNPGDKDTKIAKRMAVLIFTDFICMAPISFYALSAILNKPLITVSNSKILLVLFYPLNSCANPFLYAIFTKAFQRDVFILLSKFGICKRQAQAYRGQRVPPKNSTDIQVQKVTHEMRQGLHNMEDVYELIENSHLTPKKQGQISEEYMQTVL", "test": "radioligand binding; real-time kinetic binding assay with LigandTracer; 10^6 ML-1 cells seeded in a tilted Petri dish; 2 mL of 30 nM radiolabeled ligand in culture medium for 1 h, then medium without ligand to follow release; Kd from binding/release curve (GraphPad Prism)", "details": "one partner purified", "data": [{"binder": "B1", "values": [{"measurement": "Kd", "result": 8.4, "unit": "nM"}]}]}
